In one series the target is LovF (Aspergillus terreus, UniProt Q9Y7D5). Nature of the series: FTMS of ACP-bound diketide. Format: biochemical. Particulars: with SAM and NADPH; covalent loading on ACP.
Substrate in series [1]: CC[C@H](C)C(=O)SCCNC(=O)CCNC(=O)[C@H](O)C(C)(C)COP(=O)(O)OP(=O)(O)OC[C@H]1O[C@@H](n2cnc3c(N)ncnc32)[C@H](O)[C@@H]1OP(=O)(O)O
Nature of the series: initial velocity of lovastatin formation by HPLC. It is filed as biochemical, Aspergillus terreus. Particulars: acyl donor; acyl acceptor monacolin J.

Substrate in series [2]: CC[C@H](C)C(=O)SCCNC(C)=O
In words: initial velocity of lovastatin formation by HPLC. The following applies: acyl donor; acyl acceptor monacolin J. It is filed as biochemical, Aspergillus terreus.

The values below come from publication PMC2878198 (Journal of the American Chemical Society, 2009).

Usually Km stands for the concentration of substrate that gives half-maximal velocity. Usually kcat stands for the number of substrate molecules converted per active site and unit of time at saturation. A word on the kcat/Km: it is the second-order rate constant that governs catalysis at low substrate concentration.

Sequence of LovF (Q9Y7D5 whole entry): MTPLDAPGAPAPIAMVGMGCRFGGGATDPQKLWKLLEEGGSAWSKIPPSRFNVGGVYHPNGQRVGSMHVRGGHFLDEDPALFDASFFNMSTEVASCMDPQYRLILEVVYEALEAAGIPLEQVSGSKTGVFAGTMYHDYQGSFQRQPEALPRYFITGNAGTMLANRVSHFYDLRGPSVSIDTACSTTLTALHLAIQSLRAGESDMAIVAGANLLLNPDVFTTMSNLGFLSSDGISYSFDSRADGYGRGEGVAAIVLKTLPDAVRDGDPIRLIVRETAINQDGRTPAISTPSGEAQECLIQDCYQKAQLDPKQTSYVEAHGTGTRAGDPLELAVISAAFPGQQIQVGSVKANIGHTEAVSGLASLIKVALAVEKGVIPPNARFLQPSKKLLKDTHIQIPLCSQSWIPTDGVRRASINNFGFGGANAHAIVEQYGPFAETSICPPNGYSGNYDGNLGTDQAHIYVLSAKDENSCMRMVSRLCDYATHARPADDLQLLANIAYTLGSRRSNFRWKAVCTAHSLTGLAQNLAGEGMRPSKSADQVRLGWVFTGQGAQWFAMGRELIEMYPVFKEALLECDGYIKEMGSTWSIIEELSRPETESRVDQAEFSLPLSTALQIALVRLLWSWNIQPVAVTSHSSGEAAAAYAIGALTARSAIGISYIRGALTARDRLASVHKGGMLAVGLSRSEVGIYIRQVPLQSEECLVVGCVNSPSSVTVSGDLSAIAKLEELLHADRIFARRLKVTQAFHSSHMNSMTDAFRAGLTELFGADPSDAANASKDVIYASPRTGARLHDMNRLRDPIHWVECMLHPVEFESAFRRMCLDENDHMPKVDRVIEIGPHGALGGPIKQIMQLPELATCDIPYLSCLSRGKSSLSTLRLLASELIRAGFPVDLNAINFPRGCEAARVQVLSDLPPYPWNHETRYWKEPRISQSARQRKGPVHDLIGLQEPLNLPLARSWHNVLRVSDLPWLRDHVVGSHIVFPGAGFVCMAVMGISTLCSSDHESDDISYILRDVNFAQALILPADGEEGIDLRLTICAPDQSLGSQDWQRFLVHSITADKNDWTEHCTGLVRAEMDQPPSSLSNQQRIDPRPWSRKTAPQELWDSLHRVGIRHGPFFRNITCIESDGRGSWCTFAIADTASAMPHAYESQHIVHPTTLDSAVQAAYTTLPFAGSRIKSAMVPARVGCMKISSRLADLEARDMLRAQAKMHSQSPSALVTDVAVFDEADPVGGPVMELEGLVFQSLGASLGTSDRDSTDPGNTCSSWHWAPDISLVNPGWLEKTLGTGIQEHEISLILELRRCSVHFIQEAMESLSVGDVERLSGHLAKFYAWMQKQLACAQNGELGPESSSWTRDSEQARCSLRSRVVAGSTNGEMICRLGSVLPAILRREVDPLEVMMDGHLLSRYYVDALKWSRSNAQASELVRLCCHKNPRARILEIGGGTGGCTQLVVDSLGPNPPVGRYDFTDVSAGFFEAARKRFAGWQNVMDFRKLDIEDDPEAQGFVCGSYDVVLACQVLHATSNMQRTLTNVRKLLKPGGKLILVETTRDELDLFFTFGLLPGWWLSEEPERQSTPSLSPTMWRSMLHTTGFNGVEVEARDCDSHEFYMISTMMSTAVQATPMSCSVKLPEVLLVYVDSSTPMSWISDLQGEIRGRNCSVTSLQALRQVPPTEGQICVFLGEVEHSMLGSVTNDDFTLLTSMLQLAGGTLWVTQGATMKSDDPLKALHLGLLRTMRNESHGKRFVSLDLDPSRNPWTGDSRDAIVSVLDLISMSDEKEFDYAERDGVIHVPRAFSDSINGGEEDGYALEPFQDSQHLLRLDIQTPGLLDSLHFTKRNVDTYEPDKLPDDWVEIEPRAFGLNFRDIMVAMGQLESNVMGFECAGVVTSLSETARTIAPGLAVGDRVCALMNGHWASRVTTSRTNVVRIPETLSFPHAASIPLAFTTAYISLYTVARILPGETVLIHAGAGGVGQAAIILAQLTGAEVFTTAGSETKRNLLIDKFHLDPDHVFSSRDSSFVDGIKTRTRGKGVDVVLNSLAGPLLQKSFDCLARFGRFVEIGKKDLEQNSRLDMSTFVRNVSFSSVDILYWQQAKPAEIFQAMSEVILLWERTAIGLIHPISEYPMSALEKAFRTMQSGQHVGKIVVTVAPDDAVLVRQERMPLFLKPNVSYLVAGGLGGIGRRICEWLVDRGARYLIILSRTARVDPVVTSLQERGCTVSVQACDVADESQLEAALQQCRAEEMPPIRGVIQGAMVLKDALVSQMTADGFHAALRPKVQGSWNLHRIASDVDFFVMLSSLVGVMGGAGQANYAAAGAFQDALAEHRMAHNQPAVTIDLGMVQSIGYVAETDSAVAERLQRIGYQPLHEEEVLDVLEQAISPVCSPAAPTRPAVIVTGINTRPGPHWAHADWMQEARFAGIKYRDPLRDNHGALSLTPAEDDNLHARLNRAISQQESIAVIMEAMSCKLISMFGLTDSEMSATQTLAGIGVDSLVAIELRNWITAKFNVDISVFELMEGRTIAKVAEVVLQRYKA

Regarding `CC(C)(COP(=O)(O)OP(=O)(O)OC[C@H]1O[C@@H](n2cnc3c(N)ncnc32)[C@H](O)[C@@H]1OP(=O)(O)O)[C@@H](O)C(=O)NCCC(=O)NCCSC(=O)CC(=O)O` [malonyl-CoA], on LovF, the “FTMS of ACP-bound diketide; LC-MS of product released by LovD” value is “we incubated LovF with malonyl-CoA, SAM and NADPH”.

B1: LovD (Aspergillus terreus) (protein)
chain: MGSIIDAAAAADPVVLMETAFRKAVKSRQIPGAVIMARDCSGNLNYTRCFGARTVRRDECNQLPPLQVDTPCRLASATKLLTTIMALQCMERGLVDLDETVDRLLPDLSAMPVLEGFDDAGNARLRERRGKITLRHLLTHTSGLSYVFLHPLLREYMAQGHLQSAEKFGIQSRLAPPAVNDPGAEWIYGANLDWAGKLVERATGLDLEQYLQENICAPLGITDMTFKLQQRPDMLARRADQTHRNSADGRLRYDDSVYFRADGEECFGGQGVFSGPGSYMKVLHSLLKRDGLLLQPQTVDLMFQPALEPRLEEQMNQHMDASPHINYGGPMPMVLRRSFGLGGIIALEDLDGENWRRKGSLTFGGGPNIVWQIDPKAGLCTLAFFQLEPWNDPVCRDLTRTFEHAIYAQYQQG
For the molecule B1, in series [1], the Km turned out to be 2.5 ± 0.31 mM, the kcat turned out to be 0.00283 ± 0.000167 s⁻¹ and the kcat/Km is 1.15 M⁻¹ s⁻¹. In series [2], the Km worked out at 9.2 ± 0.9 mM, the kcat turned out to be 0.0004 ± 1.67e-05 s⁻¹ and the kcat/Km was 0.0267 M⁻¹ s⁻¹.
